# Results reported in US5723594, “High affinity PDGF nucleic acid ligands” (NeXstar Pharmaceuticals, Inc.).
# B1: 36t (ssDNA)
# DNA: CACAGGCTACGGCACGTAGAGCATCACCATGATCCTGTGT
# modifications: 3'-3' linked inverted T at 3' end
# B2: 20t (ssDNA)
# DNA: TGGGAGGGCGCGTTCTTCGTGGTTACTTTTAGTCCCGT
# modifications: 3'-3' linked inverted T at 3' end
# B3: 41t (ssDNA)
# DNA: TACTCAGGGCACTGCAAGCAATTGTGGTCCCAATGGGCTGAGTAT
# modifications: 3'-3' linked inverted T at 3' end
# Legend:
# Settings in all cases: tags: R&D Systems, carrier-free, E. coli produced; chain copies: 2 (homodimer, inferred); label: 5'-32P; three-way helix junction
# PDGF-BB [1] = target: T1, PDGF-BB (Homo sapiens, UniProt P01127 P01127:82-190); test: cell_activity; inhibition of thymidine incorporation in PAE cells expressing PDGF beta-receptor, 20 ng/ml PDGF-BB
# Protocol: (§1) The incorporation of [^3H]thymidine into PAE cells expressing PDGF β-receptor in response to 20 ng/ml of PDGF-BB or 10% fetal calf serum and in the presence of different concentrations of DNA ligands was performed as described (Mori et al., (1991) *J. Biol. Chem.* 266, 21158–21164). After incubation for 24 h at 37° C., ^3H-radioactivity incorporated into DNA was determined using a β-counter.
# (§2) We furthermore investigated the ability of the DNA ligands to inhibit the mitogenic effects of PDGF-BB on PAE cells expressing PDGF β-receptors. […] The control ligand T39 had no effect. Moreover, none of the ligands inhibited the stimulatory effects of fetal calf serum on [^3H]thymidine incorporation in these cells, showing that the inhibitory effects are specific for PDGF.
# PDGF-BB [2] = target: T1, PDGF-BB; test: cell_activity; slightly less efficient than 36t; thymidine incorporation
# Protocol: as §1, §2
# PDGF-BB [3] = target: T1, PDGF-BB; test: cell_activity; slightly more efficient than 36t; thymidine incorporation
# Protocol: as §1, §2
# T1 sequence (P01127 82-190, one chain of several): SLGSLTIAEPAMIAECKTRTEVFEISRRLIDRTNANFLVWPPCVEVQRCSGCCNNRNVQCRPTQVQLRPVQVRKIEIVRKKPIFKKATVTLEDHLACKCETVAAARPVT
binder,measurement,setting,value
B1,IC50,PDGF-BB [1],2.5 nM
B2,IC50,PDGF-BB [2],> 2.5 nM
B3,IC50,PDGF-BB [3],< 2.5 nM
